In doi:10.1101/2025.01.22.634223 (bioRxiv, 2025):

B1: GST::hGDI1 (natural protein)
chain: MDEEYDVIVLGTGLTECILSGIMSVNGKKVLHMDRNPYYGGESSSITPLEELYKRFQLLEGPPESMGRGRDWNVDLIPKFLMANGQLVKMLLYTEVTRYLDFKVVEGSFVYKGGKIYKVPSTETEALASNLMGMFEKRRFRKFLVFVANFDENDPKTFEGVDPQTTSMRDVYRKFDLGQDVIDFTGHALALYRTDDYLDQPCLETVNRIKLYSESLARYGKSPYLYPLYGLGELPQGFARLSAIYGGTYMLNKPVDDIIMENGKVVGVKSEGEVARCKQLICDPSYIPDRVRKAGQVIRIICILSHPIKNTNDANSCQIIIPQNQVNRKSDIYVCMISYAHNVAAQGKYIAIASTTVETTDPEKEVEPALELLEPIDQKFVAISDLYEPIDDGCESQVFCSCSYDATTHFETTCNDIKDIYKRMAGTAFDFENMKRKQNDVFGEAEQ

Key:
GST::hGDI1 = target: B1; assay: pull-down
6HIS::MYC::PIAS1::6HIS = 6HIS::MYC::PIAS1::6HIS (human, UniProt O75925 1-651); assay: pull-down
Sequence of 6HIS::MYC::PIAS1::6HIS (O75925 whole entry): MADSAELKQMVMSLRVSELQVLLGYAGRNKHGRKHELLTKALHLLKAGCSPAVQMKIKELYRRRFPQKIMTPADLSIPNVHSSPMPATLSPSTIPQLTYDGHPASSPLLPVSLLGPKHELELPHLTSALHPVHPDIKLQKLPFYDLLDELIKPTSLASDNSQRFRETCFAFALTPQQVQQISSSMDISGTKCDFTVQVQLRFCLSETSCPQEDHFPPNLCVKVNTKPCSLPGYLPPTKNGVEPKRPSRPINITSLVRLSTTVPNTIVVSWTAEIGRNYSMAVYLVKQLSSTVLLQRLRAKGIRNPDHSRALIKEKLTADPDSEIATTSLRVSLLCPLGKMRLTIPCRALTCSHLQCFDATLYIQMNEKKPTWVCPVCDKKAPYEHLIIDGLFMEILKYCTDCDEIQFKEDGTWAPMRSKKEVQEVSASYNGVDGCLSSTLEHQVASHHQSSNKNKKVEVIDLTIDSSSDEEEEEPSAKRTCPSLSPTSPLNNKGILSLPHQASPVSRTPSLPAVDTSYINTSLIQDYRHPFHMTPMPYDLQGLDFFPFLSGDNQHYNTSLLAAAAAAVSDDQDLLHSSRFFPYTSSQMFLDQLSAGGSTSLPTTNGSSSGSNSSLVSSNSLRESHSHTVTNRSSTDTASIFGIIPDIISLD

| Binder | binding result (GST::hGDI1) | binding result (6HIS::MYC::PIAS1::6HIS) |
| --- | --- | --- |
| 6HIS::MYC::RAB1A::6HIS (natural protein) not shown | binds |  |
| B1 |  | binds |
